Laboratory results from paper PMC6016244, “Escherichia coli ZipA Organizes FtsZ Polymers into Dynamic Ring-Like Protofilament Structures” (mBio, 2018).
Values belong to the binder of their own block, whether it stands above or below them.

Experiments:
[1] = biological target: the molecule itself; test: lipid monolayer assay with negative stain electron microscopy; sZipA (1-2 µM) held by its His6 tag on E. coli polar lipid (or DOPC) monolayers with 0.5 to 10% DGS-NTA; FtsZ 0.5 to 5 µM added, then 2 mM GTP or 0.5 mM GMPcPP; Z-buffer (50 mM Tris-HCl pH 7.5, 300 mM KCl, 5 mM MgCl2); control: FtsZ on NTA monolayers without sZipA
[2] = biological target: T1, Alexa Fluor 488-labeled FtsZ (E. coli, UniProt P0A9A6 1-383, Alexa Fluor 488 (succinimidyl ester probe, 1:10 molar ratio); labelled residues not stated); test: self-organization assay on supported lipid bilayers, confocal and STED fluorescence microscopy; Alexa Fluor 647-labeled sZipA attached to supported bilayers of E. coli polar lipids with 0.5% NTA lipids (low density); 1 µM FtsZ-Alexa Fluor 488 added, then 2 mM GTP or 0.5 mM GMPcPP; Z-buffer; conditions: both partners purified
T1 construct: Cell division protein FtsZ, Escherichia coli; wild type; Same protein as m1, with a fluorescent label; used on supported lipid bilayers; also called FtsZ-Alexa Fluor 488; FtsZ Alexa Fluor 488
T1 sequence (looked up): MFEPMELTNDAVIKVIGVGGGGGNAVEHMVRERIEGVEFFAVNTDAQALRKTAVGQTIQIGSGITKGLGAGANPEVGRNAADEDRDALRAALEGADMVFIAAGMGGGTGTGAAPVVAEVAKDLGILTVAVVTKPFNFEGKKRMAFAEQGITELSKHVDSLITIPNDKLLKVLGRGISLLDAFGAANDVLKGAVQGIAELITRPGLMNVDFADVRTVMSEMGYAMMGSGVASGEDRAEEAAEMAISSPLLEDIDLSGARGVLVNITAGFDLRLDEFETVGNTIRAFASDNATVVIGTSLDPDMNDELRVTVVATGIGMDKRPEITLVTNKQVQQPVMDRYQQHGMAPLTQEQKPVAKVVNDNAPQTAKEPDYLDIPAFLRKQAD

B1: E. coli FtsZ (natural protein, UniProt P0A9A6 1-383, looked up)
chain: T1 sequence (looked up)
notes: Cell division protein FtsZ, Escherichia coli; wild type; Unlabelled FtsZ of the lipid monolayer / electron microscopy assays; Polymerised with GTP or GMPcPP; source: plasmid pMFV56 (pET28a-FtsZ)
binding result [1]: binds

binding result [2]: binds
B2: Alexa Fluor 647-labeled sZipA (domain or fragment)
chain: not shown
modifications: Alexa Fluor 647 (succinimidyl ester probe, 1:10 molar ratio); labelled residues not stated
notes: Cell division protein ZipA, Escherichia coli; first 25 amino acids replaced by a His6 tag; Same construct as m2, with a fluorescent label; attached to supported lipid bilayers that contain NTA lipids; also called fluorescent sZipA; not shown: His6, N-terminal, kept
